Reference: PMC3763534

Assays:
Settings in all cases: 20 mM Hepes pH 7.5, 100 mM KAc, 200 mM KCl, 3 mM MgCl2, 1 mM TCEP; 37 C, 20 min; RNA folded in 20 mM Hepes pH 7.5, 150 mM KCl, 5 mM MgCl2
[1] = test system: 40S ribosomal subunit (HeLa or RRL, used interchangeably) (Homo sapiens or rabbit); experiment: EMSA
[2] = test system: 40S ribosomal subunit (HeLa or RRL, used interchangeably);eIF3 (preparation not specified) (Homo sapiens or rabbit;Homo sapiens?); experiment: filter binding
[3] = test system: eIF3 (preparation not specified); experiment: filter binding
[4] = test system: 40S ribosomal subunit (HeLa or RRL, used interchangeably) (Homo sapiens or rabbit); experiment: filter binding
[5] = test system: 40S ribosomal subunit (HeLa) (Homo sapiens (HeLa)); experiment: EMSA
[6] = test system: 80S ribosome; experiment: EMSA
[7] = test system: 40S ribosomal subunit (RRL) (rabbit (reticulocyte lysate)); experiment: EMSA

With “AGGUUGGGGUAAACACUCCGGCCUCUUAAGCCAUUUCCUGUUUUUUUUUUUUUUUUUUUUUUUUUUUUCUUUUUUUUUUUCUUUCCUUUCCUUCUUUUUUUCCUUUCUUUUUCCCUUCUUUAAUGGUGGCUCCAUCUUAGCCCUAGUCACGGCUAGCUGUGAAAGGUCCGUGAGCCGCAUGACUGCAGAGAGUGCUGAUACUGGCCUCUCUGCAGAUCAUGU [HCV 3'UTR genotype 1a]” the Kd [1] was 6.7 nM.
HCV 3'UTR gave a Kd [2] of 1 nM, a Kd [3] of 8.9 nM and a Kd [4] of 1.8 nM. For the same substance, the Kd [5] was 1.8 nM, the Kd [6] was 11.8 nM and the Kd [7] was 5.4 nM.
HCV 3'UTR genotype 1b gave a Kd [1] of 4.7 nM.
HCV 3'UTR genotype 2a showed a Kd [1] of 3.5 nM.
With HCV 3'UTR genotype 3a the Kd [1] was 3.7 nM.
In the case of “UAGACGAGCGGCCCUAAACAACACUCCAUAACAUUUUUUUUUUUUUUUUUUUUUUUUUUUUUUUUUUUUUUUUUUUUUUUUUUUUUUUUUUUUUUUCUUUCUUAUCUGUCUAUCCCUUAGACUCCUUCUUUGGUGGCUCCAUCUUAGCCCUAGUCACGGCUAGCUGUGAAAGGUCCGUGAGCCGCAUGACUGCAGAGAGUGCUGAUACUGGCCUCUCUGCAGUUCAUGU [HCV 3'UTR genotype 6b]”, the Kd [1] is reported as 6.7 nM.
